From US20140349928A1 (MEDERIS DIABETES, published 2014)
Non-standard residues stand in square brackets, D forms with d. No end group written: not given here. Aib = CC(C)(N)C(=O)O

Target: GLP-1 receptor
Test: cell-based or functional assay

B1: EU-A391 (peptide)
peptide: H[Aib]QGT[Me‑Phe]TSDYSKYLD[Aib]K-NH2
modifications: not fully specified (residue 17); also: 1-dodecyl beta-D-glucuronyl surfactant on a linker residue
**Q.** With B1 as the binder, how does the “EC50, cAMP generated in cells (GLP-1 cellular assay)” value read?
**A.** 420 nM
